Patent publication US20230374526A1, “FORSKOLIN-INDUCIBLE PROMOTERS AND HYPOXIA-INDUCIBLE PROMOTERS” (ASKLEPIOS BIOPHARMACEUTICAL, INC., priority 2020, published 2023)

B1: HYBN-C: hypoxia-inducible promoter, SEQ ID NO: 141; 6 HRE3 elements, CMV-MP short (nucleic acid)
DNA: AATAAAATATCTTTATTTTCATTACATCTGTGTGTTGGTTTTTTGTGTGACCTTGAGTACGTGCGTCTCTGCACGTATGGATAAACCTTGAGTACGTGCGTCTCTGCACGTATGTGCGTACCTTGAGTACGTGCGTCTCTGCACGTATGGATAAACCTTGAGTACGTGCGTCTCTGCACGTATGTGCGTACCTTGAGTACGTGCGTCTCTGCACGTATGGATAAACCTTGAGTACGTGCGTCTCTGCACGTATGGCGATTAATCCATATGCGTAGGCGTGTACGGTGGGAGGTCTATATAAGCAGAGCT
modifications: Synp-HYBNC
notes: 6 HRE3 elements, CMV-MP short
B2: HYBN-MLP: hypoxia-inducible promoter, SEQ ID NO: 144; 6 HRE3 elements, MLP (nucleic acid)
DNA: AATAAAATATCTTTATTTTCATTACATCTGTGTGTTGGTTTTTTGTGTGACCTTGAGTACGTGCGTCTCTGCACGTATGGATAAACCTTGAGTACGTGCGTCTCTGCACGTATGTGCGTACCTTGAGTACGTGCGTCTCTGCACGTATGGATAAACCTTGAGTACGTGCGTCTCTGCACGTATGTGCGTACCTTGAGTACGTGCGTCTCTGCACGTATGGATAAACCTTGAGTACGTGCGTCTCTGCACGTATGGGGGGGCTATAAAAGGGGGTGGGGGCGTTCGTCCTCACTCT
modifications: Synp- HYBNMLP
notes: 6 HRE3 elements, MLP
B3: HYBN-SV: hypoxia-inducible promoter, SEQ ID NO: 145; 6 HRE3 elements, SV40 (nucleic acid)
DNA: AATAAAATATCTTTATTTTCATTACATCTGTGTGTTGGTTTTTTGTGTGACCTTGAGTACGTGCGTCTCTGCACGTATGGATAAACCTTGAGTACGTGCGTCTCTGCACGTATGTGCGTACCTTGAGTACGTGCGTCTCTGCACGTATGGATAAACCTTGAGTACGTGCGTCTCTGCACGTATGTGCGTACCTTGAGTACGTGCGTCTCTGCACGTATGGATAAACCTTGAGTACGTGCGTCTCTGCACGTATGTGCATCTCAATTAGTCAGCAACCATAGTCCCGCCCCTAACTCCGCCCATCCCGCCCCTAACTCCGCCCAGTTCCGCCCATTCTCCGCCCCATCGCTGACTAATTTTTTTTATTTATGCAGAGGCCGAGGCCGCCTCGGCCTCTGAGCTATTCCAGAAGTAGTGAGGAGGCTTTTTTGGAGGCCTAGGCTTTTGCAAAAAGCTT
modifications: Synp-HYBNSV
notes: 6 HRE3 elements, SV40
B4: HYBN-minTk: hypoxia-inducible promoter, SEQ ID NO: 143; 6 HRE3 elements, MinTK (nucleic acid)
DNA: AATAAAATATCTTTATTTTCATTACATCTGTGTGTTGGTTTTTTGTGTGACCTTGAGTACGTGCGTCTCTGCACGTATGGATAAACCTTGAGTACGTGCGTCTCTGCACGTATGTGCGTACCTTGAGTACGTGCGTCTCTGCACGTATGGATAAACCTTGAGTACGTGCGTCTCTGCACGTATGTGCGTACCTTGAGTACGTGCGTCTCTGCACGTATGGATAAACCTTGAGTACGTGCGTCTCTGCACGTATGTTCGCATATTAAGGTGACGCGTGTGGCCTCGAACACCGAGCGACCCTGCAGCGACCCGCTTAA
modifications: Synp-HYBNMinTK
notes: 6 HRE3 elements, MinTK
B5: HYBN-YB: hypoxia-inducible promoter, SEQ ID NO: 140; 6 HRE3 elements spaced by 5 bp spacers, YB-TATA (nucleic acid)
DNA: AATAAAATATCTTTATTTTCATTACATCTGTGTGTTGGTTTTTTGTGTGACCTTGAGTACGTGCGTCTCTGCACGTATGGATAAACCTTGAGTACGTGCGTCTCTGCACGTATGTGCGTACCTTGAGTACGTGCGTCTCTGCACGTATGGATAAACCTTGAGTACGTGCGTCTCTGCACGTATGTGCGTACCTTGAGTACGTGCGTCTCTGCACGTATGGATAAACCTTGAGTACGTGCGTCTCTGCACGTATGTCTAGAGGGTATATAATGGGGGCCA
modifications: Synp-HYPN
notes: 6 HRE3 elements spaced by 5 bp spacers, YB-TATA
B6: HYBN-TATAm6a: hypoxia-inducible promoter, SEQ ID NO: 147; 6 HRE3 elements, TATAm6a (nucleic acid)
DNA: AATAAAATATCTTTATTTTCATTACATCTGTGTGTTGGTTTTTTGTGTGACCTTGAGTACGTGCGTCTCTGCACGTATGGATAAACCTTGAGTACGTGCGTCTCTGCACGTATGTGCGTACCTTGAGTACGTGCGTCTCTGCACGTATGGATAAACCTTGAGTACGTGCGTCTCTGCACGTATGTGCGTACCTTGAGTACGTGCGTCTCTGCACGTATGGATAAACCTTGAGTACGTGCGTCTCTGCACGTATGTATAAAAGGCAGAGCTCGTTTAGTGAACCGAAGCTTGGACTAAAGCGGACTTGTCTCGAG
modifications: Synp-HYBNTATAm6a
notes: 6 HRE3 elements, TATAm6a
B7: HYBN-pJB42: hypoxia-inducible promoter, SEQ ID NO: 146; 6 HRE3 elements, pJB42 (nucleic acid)
DNA: AATAAAATATCTTTATTTTCATTACATCTGTGTGTTGGTTTTTTGTGTGACCTTGAGTACGTGCGTCTCTGCACGTATGGATAAACCTTGAGTACGTGCGTCTCTGCACGTATGTGCGTACCTTGAGTACGTGCGTCTCTGCACGTATGGATAAACCTTGAGTACGTGCGTCTCTGCACGTATGTGCGTACCTTGAGTACGTGCGTCTCTGCACGTATGGATAAACCTTGAGTACGTGCGTCTCTGCACGTATGCTGACAAATTCAGTATAAAAGCTTGGGGCTGGGGCCGAGCACTGGGGACTTTGAGGGTGGCCAGGCCAGCGTAGGAGGCCAGCGTAGGATCCTGCTGGGAGCGGGGAACTGAGGGAAGCGACGCCGAGAAAGCAGGCGTACCACGGAGGGAGAGAAAAGCTCCGGAAGCCCAGCAGCG
modifications: Synp-HYBNpJB42
notes: 6 HRE3 elements, pJB42
B8: HYBN-C53: hypoxia-inducible promoter, SEQ ID NO: 142; 6 HRE3 elements, CMV53 (nucleic acid)
DNA: AATAAAATATCTTTATTTTCATTACATCTGTGTGTTGGTTTTTTGTGTGACCTTGAGTACGTGCGTCTCTGCACGTATGGATAAACCTTGAGTACGTGCGTCTCTGCACGTATGTGCGTACCTTGAGTACGTGCGTCTCTGCACGTATGGATAAACCTTGAGTACGTGCGTCTCTGCACGTATGTGCGTACCTTGAGTACGTGCGTCTCTGCACGTATGGATAAACCTTGAGTACGTGCGTCTCTGCACGTATGCAACAAAATGTCGTAACAAGGGCGGTAGGCGTGTACGGTGGGAGGTCTATATAAGCAGAGCTCGTTTAGTGAACCG
modifications: Synp-HYBNC53
notes: 6 HRE3 elements, CMV53

Test system: HEK293 cells
Assay: Luciferase expression from new HRE3 hypoxia-inducible promoter designs, normoxia vs 24 h hypoxia
Format: cell-based, human
Conditions: HEK293, N=3
Description: Promoters were designed using HRE3 (SEQ ID NO: 9) described above. The promoters were designed around a base enhancer element: • […]gataa[…] GTATGtgcgt[…]gataaACCTTGAGTACGTGCGT CTCTGCACGTATGtgcgt[…]gataaACCTTGAGT […] (SEQ ID NO: 139) • HRE3 is in capital letters
This enhancer was operably linked with the following minimal promoters, with a 5 bp spacer between the enhancer and the minimal promoter: • YB-Tata (HYPN) • Short CMV (HYBNC) • CMV53 (HYBNC53) • MinTK (HYBNMinTK) • 30 MLP (HYBNMLP) • SV40 (HYBNSV) • pJB42 (HYBNpJB42)
This enhancer was also operably liked with another minimal promoter named TATA-m6A (HYBNTATAm6a): • […]aagcttggactaaagcggacttgtctcgag (SEQ ID NO: 101)
These new designs were transfected in HEK293 cells as described above and the results of their expression in hypoxia and normoxia are shown in FIG. 15.

Row | Molecule | Luciferase activity in normoxia | Luciferase expression after 24 hours in hypoxia (vs normoxia)
1 | B1 | almost no luciferase activity | induced
2 | B2 | almost no luciferase activity | induced
3 | B3 | almost no luciferase activity | induced
4 | B4 | almost no luciferase activity | induced
5 | B5 | almost no luciferase activity | induced
6 | B6 | almost no luciferase activity | induced
7 | B7 | almost no luciferase activity | induced
8 | B8 | almost no luciferase activity | induced
